Data on 19 molecules can be found in patent US7101851 (dated 2006).

In assay [1] the target is T1, alpha subunit of the human FcεRI receptor expressed on cells (human, UniProt P12319 26-257).
T1 construct: whole, on cells; on rat basophil RBL-48 cells in the histamine release assay; also called CHO FcεRI+ cells; cell surface expressed FcεRI
T1 sequence (looked up): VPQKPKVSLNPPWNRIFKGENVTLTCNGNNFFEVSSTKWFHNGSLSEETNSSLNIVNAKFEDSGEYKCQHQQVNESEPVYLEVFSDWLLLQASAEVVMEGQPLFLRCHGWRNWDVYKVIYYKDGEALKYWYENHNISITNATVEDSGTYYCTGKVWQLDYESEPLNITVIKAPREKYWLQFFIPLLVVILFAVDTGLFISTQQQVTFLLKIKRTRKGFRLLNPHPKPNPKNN
As to the kind of experiment: IgE inhibition assay (Table 9).

The target of the next assay is T2, FcεRI-IgG (UniProt P12319 26-205).
T2 construct: extracellular domain; Produced from CHO cells (Genentech); also called FcεRI-Fc; bivalent fusion protein of the extracellular domain of FcεRI and the Fc domain of IgG; not shown: Fc domain of IgG
T2 sequence (looked up): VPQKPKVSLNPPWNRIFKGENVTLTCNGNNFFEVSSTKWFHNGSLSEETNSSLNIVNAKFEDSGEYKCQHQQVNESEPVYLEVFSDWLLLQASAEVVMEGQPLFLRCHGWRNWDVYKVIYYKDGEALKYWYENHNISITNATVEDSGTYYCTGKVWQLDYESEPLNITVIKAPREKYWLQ
As to the kind of experiment: competitive phage ELISA: g3 peptide-phage on immobilized FcεRI-IgG, soluble FcεRI-IgG titrated. An excerpt: Peptide sequences from g8p-fused phage clones that specifically bound FcεRI-IgG were transferred onto a g3p-display format for monovalent phage display (Bass et al., *Proteins* 8, 309–314 (1990); Lowman et al., *Biochemistry* 30, 10832–10838 (1991)). An oligonucleotide encoding for each desired peptide with additional 5' and 3' base pair that overlapped with g3 was synthesized. This oligonucleotide was annealed with a g3 single stranded DNA phagemid template. The mutagenesis reaction was transformed into XL-1 Blue *E. coli* and plated on LB-carb+ agar plates. Individual colonies were propagated in 5 mL of 2YT broth, tetracycline, carbenicillin and VCSM13 helper phage (Stratagene). Single stranded DNA was isolated from the purified phage particles and sequenced to confirm the insertion of the phage peptide sequence. 25 mL preparations of g3 phage clones were propagated overnight and purified by PEG precipitation. After resuspension of the phage pellet in 1.0 mL of PBS, it was serially diluted 1/3 and incubated with immobilized FcεRI-IgG 2 ug/mL in a 96 well Maxisorp microtiter plate for 1 hour at room temperature. The wells were washed 10× with PBST then incubated with 100 uL of anti M13 phage HRP as described above. An OD(492) value corresponding to less than 50% binding was selected and the purified phage clones were diluted to yield this normalized level of signal. […] The mixture was then transferred to 96 well microtiter dishes containing immobilized FcεRI-IgG. After a 1-hour incubation period, the plates were washed 10 times, incubated with anti M13-HRP conjugated antibody and developed with OPD as described above.
In general terms: ELISA stands for enzyme-linked immunosorbent assay.

Assay [2] concerns the target T3, extracellular domain of the alpha subunit of the human FcεRI (aa 1-176), produced in baculovirus infected … (human, UniProt P12319 26-201, N-linked carbohydrate (NAG on Asn21 seen in the crystal); derivatised with PDEA for thiol coupling to the chip in the biosensor assay).
T3 construct: range 1-176; Residues 1-176 are probably counted without the signal peptide; also called FcεRIα; soluble FcεRI
T3 sequence (looked up): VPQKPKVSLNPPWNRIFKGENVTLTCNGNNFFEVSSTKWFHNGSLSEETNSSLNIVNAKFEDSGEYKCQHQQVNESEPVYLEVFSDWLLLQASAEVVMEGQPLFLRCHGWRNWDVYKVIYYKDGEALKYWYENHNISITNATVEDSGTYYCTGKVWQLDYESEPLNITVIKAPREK
The assay can be described thus: SPR biosensor (BIAcore), peptide over immobilized FcεRIα, steady-state saturation curve, 4-parameter fit. The method, then:
*peptide is a dimer. SEQ ID NO: describes each monomer of the dimer. "ava" = amino-valeric acid Several peptides were also tested in a direct-binding assay using a surface plasmon resonance biosensor (Lofas & Johnsson, *J. Chem. Soc. Commun.* 21, 1526–1528 (1990)). FcεRIα, produced in baculovirus infected insect cells, was immobilized by the surface thiol method (BIAcore Methods Manual Supplement 5a, BIAcore, Inc., Piscataway, N.J.). Briefly, receptor was reacted with 2-(2-pyridinyldithio)ethaneamine hydrochloride (PDEA; Natake & Swaisgood, *J. Biochem.* 74, 77–86 (1973)), desalted into 10 mM sodium acetate (pH 4.8) and stored in aliquots at −80° C. Thawed PDEA-receptor was injected over carboxymethyl-dextran (B1 or CM5, BIAcore, Inc.) biosensor chips preactivated with N-ethyl-N'-(3-dimethylaminopropyl)-carbodiimide hydrochloride (EDC) and N-hydroxysuccinimide (NHS), cystamine, and DTT. Following coupling, reactive groups on the chip were quenched with PDEA and ethanolamine. Serial dilutions of peptide in running buffer (phosphate-buffered saline containing 0.05% Tween-20, 0.01% sodium azide) were injected over the immobilized receptor, and the net amount of peptide bound at steady-state was measured as the net change in response (RU) at a point just prior to termination of peptide injection, compared to a running-buffer baseline. Binding affinities (Table 10) are reported as the midpoint ($EC50$) of a 4-parameter fit to the peptide saturation curve. In the case of IGE134 (SEQ ID NOS:), the value shown indicates the Kd calculated from the rate constants, $kon$ and $koff$. The results of binding assays (Table 8) correlate well with those of inhibition assays (Table 7).

Bridges are numbered along the chain shown (N, C = ends). Where no end group is shown, it is not given here. A value given as a limit tells only on which side of the number the result lay.

B1: IGE142 (peptide)
peptide: VQCAHFCYVGGHALCPDVCYVGR
modifications: disulfide (positions not given here); also: two intramolecular disulfide bonds, pairing not given here
notes: P4A of IGE132; made in E. coli as a Z-domain fusion and cleaved with trypsin
Consider B1, for which the “fold reduced activity against its control peptide” value in assay [1] is greater than 100 fold.

B2: g3b.4 peptide-phage (peptide)
peptide: VMPTCTEGPWGWVCMAAD
modifications: not fully specified (bridges); cysteine pairing not given here
notes: not shown: fused to M13 gene-3 protein (g3p) on phage
Regarding B2, the IC50 (as a rule, the point on the concentration scale where inhibition reaches its midpoint) with FcεRI-IgG was determined as 7 nM.

B3: g3b.1 peptide-phage (peptide)
peptide: NLPRCTEGPWGWVCMAAD
modifications: disulfide 5-14 (inferred); not fully specified
notes: as for B2
With B3, in the assay with FcεRI-IgG, the IC50 came to 13 nM.

B4: g3b.3 peptide-phage (peptide)
peptide: NLPTCTEGPWGWVCMAAD
modifications: not fully specified (bridges); cysteine pairing not given here
notes: as for B2
B4: in the assay with FcεRI-IgG, the IC50 turned out to be 7 nM.

B5: IGE131 (peptide)
peptide: VQCPHFCYVGGKVQCPHFCYV-NH2
modifications: disulfide 3-15, 7-19
notes: The text speaks of it as D17H against IGE122
On to B5, for which the “fold reduced activity against IGE122” value in assay [1] is greater than 10 fold.
IVCARLCYVGGKALCPDVCYV-NH2 (disulfide 3-15, 7-19, P4A of IGE120) [IGE127]: the “fold reduced activity against its control peptide” value in assay [1] worked out at 50 fold.

B6: IGE131 (peptide)
peptide: VQCPHFCYVGGKVQCPHFCYV-NH2
modifications: disulfide (positions not given here); not fully specified (bridges); also: oxidized, disulfide-bonded Cys, pairing not given here
Take B6: the EC50 (usually the concentration giving half of the maximal effect) in assay [2] was 2300 nM.

B7: IGE132 (peptide)
peptide: VQCPHFCYVGGHALCPDVCYVGR-OH
modifications: cysteine pairing not given here
notes: produced biosynthetically as a fusion to the Z-domain of protein A and cleaved off with trypsin; free C-terminus
The molecule B7 came in with an EC50 in assay [2] of 680 nM.

B8: g3b.8 peptide-phage (peptide)
peptide: GRTECTEGPWGWVCMAAD
modifications: not fully specified (bridges); cysteine pairing not given here
notes: as for B2
B8 yielded an IC50 in the assay with FcεRI-IgG of 14 nM.

B9: g3b.7 peptide-phage (peptide)
peptide: DLPACTEGPWGWVCMAAD
modifications: not fully specified; cysteine pairing not given here
notes: as for B2
Consider B9, for which the IC50 in the assay with FcεRI-IgG turned out to be 9 nM.
Turning to VQCPHFCYFGGAELCPGVCYV-NH2 (disulfide 3-15, 7-19) [IGE136], the “fold difference in activity against IGE135” value in assay [1] is roughly 2 fold.
As to Ac-CPHFCYFGAELCPDVCY-NH2 (disulfide (positions not given here)) [IGE171], the “fold difference in activity against IGE167” value in assay [1] is no more than 2 fold.
As for IVCPRLCYELDYELCPDVCYV-NH2 (disulfide 3-15, 7-19) [IGE141], in assay [1], the “fold difference in activity against IGE120” value turned out to be 2 fold.

B10: g3b.6 peptide-phage (peptide)
peptide: GRAQCTEGPWGWVCMAAD
modifications: not fully specified (bridges); cysteine pairing not given here
notes: as for B2
In the case of B10, the IC50 with FcεRI-IgG came to 16 nM.

B11: g3b.5 peptide-phage (peptide)
peptide: AMAQCTEGPWGWVCMAAD
modifications: not fully specified; cysteine pairing not given here
notes: as for B2
Molecule B11 yielded a concentration for half-maximal inhibition (IC50) in the assay with FcεRI-IgG of 10 nM.

B12: IGE155 (peptide)
peptide: CPHFCYELDYELCPDVCY-NH2
modifications: disulfide (positions not given here); also: two intramolecular disulfide bonds, pairing not given here
B12: the “fold difference in activity against IGE134” value in assay [1] is no more than 2 fold.
Turning to CPHFCYFGAELCPDVCY-NH2 (disulfide (positions not given here)) [IGE170], in assay [1], the “fold difference in activity against IGE167” value is no more than 2 fold.

B13: IGE150 (peptide)
peptide: VQCPHFCYVGGKALCPDVCDV-NH2
modifications: disulfide (positions not given here); also: two intramolecular disulfide bonds, pairing not given here
notes: Y20D of IGE122
In the case of B13, in assay [1], the “fold loss in activity” value is roughly 5 fold.

B14: IGE130 (peptide)
peptide: ALCPDVCYVGGKVQCPHFCYV-NH2
modifications: disulfide 7-15, 3-19; N-terminus assumed
SMILES: CC(C)C[C@H](NC(=O)[C@H](C)N)C(=O)N[C@H]1CSSC[C@@H](C(=O)N[C@@H](Cc2ccc(O)cc2)C(=O)N[C@H](C(N)=O)C(C)C)NC(=O)[C@H](Cc2ccccc2)NC(=O)[C@H](Cc2c[nH]cn2)NC(=O)[C@@H]2CCCN2C(=O)[C@@H]2CSSC[C@H](NC(=O)[C@H](C(C)C)NC(=O)[C@H](CC(=O)O)NC(=O)[C@@H]3CCCN3C1=O)C(=O)N[C@@H](Cc1ccc(O)cc1)C(=O)N[C@@H](C(C)C)C(=O)NCC(=O)NCC(=O)N[C@@H](CCCCN)C(=O)N[C@@H](C(C)C)C(=O)N[C@@H](CCC(N)=O)C(=O)N2
As to B14, in assay [2], the EC50 was found to be 250 nM.
